Experimental data as given in the supplement of paper PMC10567573.

B1: RAD54B (parent)
chain: YVQEKRDGLKRRQQLEEELLRAKI
B2: USP39 (parent)
chain: FQGSMRIFTKKLPHPDLPAEEKEQ

Variants of: B1
Test: protein stability index of a GFP-peptide fusion (GPS, HEK-293T) (PSI 1-6); higher = more stable
Settings: c terminus: a fixed tail appended
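Note: lentivirally expressed fusions sorted by FACS into six bins by GFP to DsRed ratio, PSI derived from sequencing read proportions per bin multiplied by bin number.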

Protein stability index, by site and new letter:
L15: P 1.51, Q 1.7, R 1.99, S 1.95, T 1.55, V 1.48, W 1.49, Y 2.44
E16: A 1.98, C 2.09, D 1.77, F 2.74, G 2.41, H 1.74, I 1.51, K 1.67, L 2.17, M 1.74, N 2.07, P 1.56, Q 1.8, R 1.53, S 1.39, T 1.83, V 2.24, W 1.73, Y 1.73
E17: A 1.6, C 2.21, D 2.01, F 1.87, G 2.35, H 1.84, I 2.45, K 1.9, L 2.19, M 2.21, N 2, P 1.98, Q 1.51, R 2.44, S 2.15, T 2.08, V 2.25, W 1.9, Y 1.36
E18: A 2.02, C 1.73, D 1.86, F 2.06, G 2.53, H 2.29, I 1.67, K 1.95, L 1.55, M 2.01, N 1.96, P 2, Q 2.03, R 1.88, S 2.13, T 1.48, V 1.94, W 2.42, Y 2.22
L19: A 1.96, C 1.95, D 2.3, E 1.95, F 2.37, G 2.54, H 2.16, I 1.88, K 2.42, M 2.06, N 2.14, P 2.34, Q 1.78, R 2.38, S 2.45, T 1.75, V 1.7, W 2.17, Y 1.55
L20: A 1.95, C 1.59, D 1.97, E 2.25, F 1.3, G 2.08, H 1.81, I 1.76, K 2.19, M 1.78, N 1.94, P 1.78, Q 1.75, R 2.18, S 1.67, T 1.82, V 1.49, W 2.08, Y 2.26
R21: A 1.66, C 1.87, D 2.1, E 2.17, F 1.93, G 2.09, H 1.57, I 2.16, K 2.19, L 1.84, M 1.96, N 1.8, P 2.32, Q 1.89, S 2.97, T 2.26, V 1.94, W 1.93, Y 1.75
A22: C 1.83, D 2.29, E 2.92, F 2.06, G 1.89, H 1.52, I 2.32, K 1.82, L 1.99, M 2.27, N 2.01, P 1.68, Q 2, R 1.83, S 2.16, T 1.98, V 2.45, W 2, Y 1.81
K23: A 1.78, C 1.79, D 2.55, E 1.71, F 1.81, G 1.86, H 2.95, I 1.73, L 3.08, M 2.62, N 2.28, P 2.63, Q 1.59, R 2.45, S 2.36, T 2.08, V 2.25, W 1.59, Y 1.49
I24: A 1.98, C 1.75, D 2.73, E 2.17, F 1.98, G 2.08, H 2.38, K 1.87, L 1.65, M 2.05, N 2.18, P 2.45, Q 2.22, R 1.68, S 1.93, T 1.58, V 1.92, W 2.28, Y 1.74

Variants of: B2
Test: as above
Settings: c terminus: a fixed tail appended

Protein stability index of substitutions, site by site:
F1: A 5.07, C 4.82, D 5.37, E 5.48, G 4.66, H 4.53, I 4.17, K 4.9, L 4.29, M 4.19, N 5.22, P 4.83, Q 4.89, R 4.95, S 5.04, T 4.86, V 4.52, W 4.78, Y 2.11
Q2: A 2.29, C 3.34, D 4.49, E 4.12, F 2.99, G 3.26, H 3.58, I 1.78, K 4.16, L 2.73, M 3.46, N 2.85, P 1.75, R 3.89, S 2.7, T 2.2, W 2.82, Y 2.92
G3: A 2.61, C 1.86, D 1.61, E 2.17, F 1.68, H 2.54, I 2.07, K 3.37, L 2.23, M 2.67, N 2.2, P 2.53, Q 3.51, R 3.64, S 2.31, T 3, V 2.01, W 1.85, Y 2.57
S4: A 2.33, C 1.39, D 1.33, E 2.28, F 1.1, H 1.69, I 2.27, K 2.37, M 4.08, N 1.79, P 2.3, Q 2.25, R 2.46, T 1.98, V 1.95, W 2.04, Y 2.25
M5: A 2.1, C 2.62, D 2.11, E 2.5, F 1.89, G 1.73, H 1.82, I 1.66, K 2.07, L 2.01, N 2.15, P 1.87, Q 2.29, R 1.89, S 1.61, T 1.61, V 2.17, W 2.14, Y 1.85
R6: A 1.92, C 1.76, D 1.84, E 1.81, F 1.76, G 1.64, H 1.83, I 2.12, K 1.89, L 2.31, M 2.15, N 1.3, P 2.37, Q 2.22, S 3.04, T 2.01, V 1.82, Y 2.24
I7: A 2.56, C 1.8, D 3.85, E 4.04, F 2.94, G 2.89, H 2.97, K 3.69, L 1.84, M 2.44, N 3.65, P 1.93, Q 3.65, R 4.38, S 3.38, T 3.01, V 1.99, W 3.05, Y 2.12
F8: A 3.6, C 3.05, D 4.23, E 4.01, G 3.48, H 3.33, I 3.17, K 3.64, L 3.28, M 3.52, N 3.68, P 3.42, Q 3.77, R 3.59, S 3.29, T 3.89, V 3.04, W 1.56, Y 2.35
T9: A 2.04, C 1.69, D 2.73, E 3.07, F 1.89, G 2.25, H 2
